According to patent publication US7067486:

Molecular target: PKCβII of mouse brain (UniProt P68404)
Sequence (P68404 other isoform, or with tags, fused parts or gaps): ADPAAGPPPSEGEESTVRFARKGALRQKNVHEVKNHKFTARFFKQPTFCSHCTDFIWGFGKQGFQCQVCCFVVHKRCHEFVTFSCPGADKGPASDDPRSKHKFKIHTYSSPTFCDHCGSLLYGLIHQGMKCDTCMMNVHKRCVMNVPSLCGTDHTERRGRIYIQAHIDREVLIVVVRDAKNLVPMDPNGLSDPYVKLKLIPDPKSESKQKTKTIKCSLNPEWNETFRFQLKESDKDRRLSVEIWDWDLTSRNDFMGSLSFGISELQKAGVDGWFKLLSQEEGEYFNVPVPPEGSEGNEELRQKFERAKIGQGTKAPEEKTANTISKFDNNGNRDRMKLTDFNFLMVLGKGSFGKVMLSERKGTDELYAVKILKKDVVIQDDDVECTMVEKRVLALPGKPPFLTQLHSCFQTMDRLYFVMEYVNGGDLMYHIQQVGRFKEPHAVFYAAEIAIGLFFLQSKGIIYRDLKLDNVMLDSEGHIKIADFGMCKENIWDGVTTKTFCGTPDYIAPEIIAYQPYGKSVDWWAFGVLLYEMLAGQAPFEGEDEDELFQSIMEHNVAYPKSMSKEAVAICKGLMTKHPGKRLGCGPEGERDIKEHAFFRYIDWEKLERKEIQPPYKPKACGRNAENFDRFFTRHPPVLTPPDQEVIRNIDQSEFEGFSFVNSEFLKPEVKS

How did the “PKC activity in brain homogenates (PKC assay kit, Upstate Biotechnology)” value turn out when “human "readthrough" acetylcholinesterase variant AChE-R, recombinant full protein” was run?
The value was “Note the elevation of PKC activity in the different brain regions in the AChE-R transgenics as compered to FVB/N controls”.
